Assay results as given in patent US6979673B1, “Method and compositions for modulating somatolactogenic functions” (Trustees of the University of Pennsylvania, priority 1999, dated 2005).

B1: Myc-tagged PRL: recombinant myc-tagged human PRL expressed and secreted by Drosophila S2 cells (protein)
chain: LPICPGGAARCQVTLRDLFDRAVVLSHYIHNLSSEMFSEFDKRYTHGRGFITKAINSCHTSSLATPEDKEQAQQMNQKDFLSLIVSILRSWNEPLYHLVTEVRGMQEAPEAILSKAVEIEEQTKRLLEGMELIVSQVHPETKENEIYPVWSGLPSLQMADEESRLSAYYNLLHCLRRDSHKIDNYLKLLKCRIIHNNNC
modifications: left off: small tags and cut ends
notes: recombinant myc-tagged human PRL expressed and secreted by Drosophila S2 cells
B2: PRL: somatolactogenic hormone prolactin; human pituitary isolated or recombinant human PRL (protein)
chain: LPICPGGAARCQVTLRDLFDRAVVLSHYIHNLSSEMFSEFDKRYTHGRGFITKAINSCHTSSLATPEDKEQAQQMNQKDFLSLIVSILRSWNEPLYHLVTEVRGMQEAPEAILSKAVEIEEQTKRLLEGMELIVSQVHPETKENEIYPVWSGLPSLQMADEESRLSAYYNLLHCLRRDSHKIDNYLKLLKCRIIHNNNC
modifications: left off: small tags and cut ends

System: Nb2 cells
Assay: PRL-driven proliferation of Nb2 cells (3H-thymidine)
Format: cell-based, rat
Procedure: The effect of exogenous CypB on PRL-driven proliferation was examined with the rat Nb2 T-cell and the human T47D breast cancer line. […] This dose-dependent biphasic effect was most prominent at physiologic concentrations ([…]) of CypB and PRL (50 pM) found in human serum. […] To determine the effect of CypB on cellular growth driven by the larger family of cytokines, to which PRL belongs, proliferation driven by interleukin-2 (IL-2), IL-3 and GH was examined.
Nb2-cells (5×10^4; PRL-dependent, rat T-lymphoma) were plated in each well of 96 well plates in a defined DMEM-serum free medium (0.1 mM 2-mercaptoethanol, 1% penicillin/streptomycin, and 1% ITS+ (Calbiochem)). Cells were rested for 24 hours at 37° C. in this defined medium in the absence of PRL before the addition of 5–500 pM PRL (either as human pituitary isolated PRL, National Hormone and Pituitary Program, NIDDK; recombinant human PRL from E. coli, Genzyme; or recombinant human PRL from Drosophila S2 cells) alone or premixed with 1–2000 fold excess of purified CypB. Parallel studies were performed using human pituitary-derived GH (National Hormone and Pituitary Program, NIDDK). Cultures were incubated for 48 hours at 37° C. and proliferation was evaluated by the addition of 0.5 μCi of ^3H-thymidine for four hours followed by harvesting and scintillography. […]

Molecule	bioactivity in Nb2 bioassays (protein expressed in Drosophila S2 cells)	PRL concentration at which Nb2 growth curves plateau (PRL alone, sigmoid shaped growth curves)
B1	functionally bioactive	–
B2	–	approximately 2 ng PRL/ml
